± gives the standard deviation of the averaged measurements.
B1: library; a variant is named by its letters at N, in order (parent)
chain: AATGTTGTTGATGCAACCATAAAGTGATATTTAATAATTATTTATAATCAGCAACTTAACCACAAAACAACCATATATTGATATNTCACAAAACAACCATAANTTGATATTTTTGTGAATCGAGTATTTCAGCAAAACTACTGCAGTAAGAA

Assays:
[1] = variants of: B1; experiment: relative integration efficiency (T-LR orientation) vs wild-type transposon end (log2 (normalized fold change)); transposon end mutated: left end; higher = more efficient transposition; conditions: with VchCAST RNA-guided transposition machinery (E. coli BL21(DE3) host, lacZ target)
Protocol: (§1)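 Pooled, barcoded VchCAST (Tn6677) mini-transposon donor libraries; each variable transposon-end sequence sits in a fixed pDonor mini-transposon context (10-bp barcode and cargo not included). Left- or right-end libraries were co-transformed with pEffector (TniQ-Cascade, TnsABC, lacZ crRNA, T7, 0.1 mM IPTG) into E. coli BL21(DE3) and grown 18 h at 37 C. T-LR and T-RL junction amplicons were sequenced; output/input barcode fold change was normalised to the mean of four wild-type barcodes and log2-transformed. Two biological replicates; zero-count/undetected variants carry floor values (-10 / -15), censored here. Barcode uncoupling by PCR recombination adds noise.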

[2] = variants of: B1; experiment: relative integration efficiency (T-RL orientation) vs wild-type transposon end (log2 (normalized fold change)); transposon end mutated: left end; higher = more efficient transposition; conditions: with VchCAST RNA-guided transposition machinery (E. coli BL21(DE3) host, lacZ target)
Protocol: as §1

Row | Variant | relative integration efficiency (log2) [1] | relative integration efficiency (log2) [2]
1 | CG A27C | -0.151 ± 0.13 | -0.383 ± 0.25
2 | CG A27G | -0.486 ± 0.47 | -0.621 ± 0.35
3 | TG A22T G24T T31C A33C A70C T76A T84A C87A | -0.478 ± 0.83 | -0.488 ± 0.46
4 | CC A23T G24C A77T T78A T104A | -0.642 ± 0.69 | -0.611 ± 0.28
5 | CA G24A T30A A102T T111C T113C | 0.116 ± 0.42 | -0.31 ± 0.36
6 | CG A11C T12G G13T C14A | -1.55 ± 0.089 | -0.699 ± 0.47
7 | CG A34C A36G T38C A40G T42C A62G A65G A66C | -0.589 ± 0.68 | -0.685 ± 0.25
8 | CG A29C T30G T31G T32G | -0.555 ± 0.56 | -0.723 ± 0.61
9 | TA G24A T30A T76A T78G C87A A102T T111C T113C | -0.298 ± 0.65 | 0.243 ± 0.089
10 | TG A22T G24T T31C A33C A70C T76A T86G | -0.285 ± 0.49 | -0.627 ± 0.19
11 | TG A16C G24T T32G A33C A70C T76A T84A C87A | -0.64 ± 0.74 | -0.378 ± 0.44
12 | CG A19C T20G | -2.1 ± 1.2 | -2.69 ± 0.82
13 | CG A1T A2T G4T T5G | -0.165 ± 0.16 | -0.0703 ± 0.2
14 | TA T76A T78G C87A A96C T110A T113A | -0.0777 ± 0.55 | -0.0885 ± 0.14
15 | CG A15C A69C A95C | -0.511 ± 0.34 | -0.731 ± 0.34
16 | CG A21C A22C | -1.77 ± 0.64 | -1.82 ± 0.43
17 | CG A44G | 0.0745 ± 0.29 | 0.155 ± 0.065
18 | CG A44C | -0.0239 ± 0.24 | 0.147 ± 0.068
19 | TG A23G G24T A33T A70C T76A T86G | -0.0695 ± 0.1 | -0.149 ± 0.11
20 | CG A34T A36G A37T T38G T39A A40G T41C T42G T43G T48C C49A | -2.77 ± 0.75 | -2.86 ± 0.81

Row | Variant | relative integration efficiency (log2) [1] | relative integration efficiency (log2) [2]
21 | CG A33C A34C | -0.259 ± 0.42 | 0.167 ± 0.0038
22 | CG A29C T30G | -1.28 ± 1.4 | -1.12 ± 0.53
23 | TA G24A T30A T76A A77G C87T A102T T111C T113C | -0.112 ± 0.15 | -0.456 ± 0.55
24 | CC T100A A101T A102T | -0.124 ± 0.68 | -0.77 ± 0.44
25 | TA T76A A77G C87T T104A T110A T113A | 0.28 ± 0.36 | -0.703 ± 0.35
26 | CG A36T A37T | 0.375 ± 0.21 | 0.0996 ± 0.091
27 | GG | -0.397 ± 0.89 | -0.0172 ± 0.13
28 | TA G24A T30A A70C T76A T86G T104G T113A | -0.0684 ± 0.51 | -0.533 ± 0.11
29 | TA G24A T30A T76A T78G C87A T104G T113A | -0.302 ± 0.11 | -0.161 ± 0.15
30 | CG A22T T76A A102T | 0.271 ± 0.39 | 0.269 ± 0.11
31 | CG A19G | -0.219 ± 0.077 | -0.352 ± 0.074
32 | CG A19C | -1.53 ± 1 | -1.49 ± 0.49
33 | CG A19T | -0.706 ± 1.6 | -0.267 ± 0.38
34 | CG A36C A37C T38G T39G | -0.25 ± 0.0025 | -0.22 ± 0.14
35 | CG A21T A22T | -0.163 ± 0.75 | -0.172 ± 0.32
36 | CG A22T G24T T31C A33C | -0.141 ± 0.18 | -0.0346 ± 0.14
37 | TA G24A T30A T76A A77G C87T T104G T113A | 0.395 ± 0.079 | -0.232 ± 0.36
38 | TA T76A A77G C87T T104G T113A | 0.151 ± 0.33 | -0.605 ± 0.42
39 | CG A16C G24T T30A | -0.135 ± 0.14 | -0.3 ± 0.21
40 | CG A16C A70C A96C | -0.695 ± 0.11 | -0.475 ± 0.19

Row | Variant | relative integration efficiency (log2) [1] | relative integration efficiency (log2) [2]
41 | TA G24A T30A T76A T78A T84A C87A A96C T112G T113C | 0.461 ± 0.4 | 0.172 ± 0.12
42 | CG A1T A2T T3A G4C T5A | -0.0748 ± 0.54 | 0.103 ± 0.061
43 | CG A2C T3G G4T T5G | -0.014 ± 0.12 | -0.514 ± 0.095
44 | TA G24A T30A T76A A77G C87T T104A T110A T113A | 0.503 ± 0.28 | -0.582 ± 0.57
45 | CG A22T A23T G24C T25A | -1.61 ± 0.58 | -1.21 ± 0.56
46 | CG A22C A23C | -1.74 ± 0.31 | -1.42 ± 0.42
47 | CG A1C A2C T3G G4T | -0.0427 ± 0.68 | -0.346 ± 0.11
48 | CG A44C T45G A46C A47C | 0.0873 ± 0.37 | -0.21 ± 0.22
49 | CG | -0.0136 ± 0.21 | -0.00322 ± 0.1
50 | CC | 0.321 ± 0.75 | -0.0693 ± 0.024
51 | CG A34T T35A A36T A37T | 0.329 ± 0.44 | 0.189 ± 0.094
52 | CG A27T T28A A29T T30A | -0.918 ± 0.29 | -0.753 ± 0.39
53 | CG A2G | 0.28 ± 0.065 | 0.239 ± 0.039
54 | CG A2T | 0.355 ± 0.34 | -0.141 ± 0.054
55 | CG A2C | 0.61035 ± 0.00046 | -0.0562 ± 0.037
56 | CG A33C C87A T113G | 0.0172 ± 0.12 | -0.0603 ± 0.021
57 | CG A21C | -1.47 ± 0.6 | -0.867 ± 0.55
58 | CG A21G | -0.166 ± 0.32 | -0.412 ± 0.49
